Test results as given in patent EP2835135A2, “Means and methods for treating pseudomonas infection” (Max-Planck-Gesellschaft zur Förderung der Wissenschaften …, priority 2013, dated 2015).
Bridge positions count the residues as written; N and C are the ends. Square brackets hold non-standard residues; d marks the D form. Ends that are not written are not given here. S5 = C=CCCC[C@](C)(N)C(=O)O

Experiments:
[1] = molecular target: T1, 14-3-3 (Homo sapiens, UniProt P63104); test: Fluorescence polarization (FP) assay: fluorescein-labeled peptides titrated with unlabeled 14-3-3 protein; assay type: binding; conditions: three cross-link architectures (C8-linker), Figure 6B
T1 sequence (P63104 1-245): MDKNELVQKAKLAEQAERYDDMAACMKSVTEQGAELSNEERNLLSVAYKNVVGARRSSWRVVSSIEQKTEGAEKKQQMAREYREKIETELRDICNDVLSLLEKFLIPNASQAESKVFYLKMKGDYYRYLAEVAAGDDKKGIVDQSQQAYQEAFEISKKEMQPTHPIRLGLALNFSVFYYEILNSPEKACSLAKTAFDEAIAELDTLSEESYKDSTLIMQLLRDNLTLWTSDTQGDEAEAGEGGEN
Description: A fluorescence polarization (FP) assay was used to determine the affinity of fluorescein-labeled truncated versions of this peptide to 14-3-3 (Table 1). […] The labeled peptides were titrated with unlabeled 14-3-3 protein.
The binding affinities were again determined using FP.
The binding affinity of the non-classic cross-linked peptides was investigated using FP (Figure 6C).

[2] = molecular target: T1, 14-3-3; test: FP competition experiment: labeled peptide preincubated with 14-3-3 and titrated with unlabeled WT peptide; assay type: binding; conditions: FITC-labeled peptide 20 nM, 14-3-3 4.0 µM, Figure 7
Description: The figures show: • Figure 1: (A) Schemetic representaion of ExoS' role in P. aeruginosa infection. (B) Crystal structure of 14-3-3 binding domain of ExoS bound to 14-3-3 (PDB 2002). • Figure 2: (A) Concept for an antibiotic strategy against P. aeruginosa. (B) Overlaid structures of 14-3-3 in complex with 14-3-3 binding domains of ExoS (PDB 2002) and endogenous phosphorylated sequences (PDB 1QJA, 1YWT, 2B05, 2BR9, 2BTP, 2C1J, 2C1N, 2C63, 2C74, 2NPM, 2IQV, 3LW1). • Figure 3: Alignment of 14-3-3 residues involved in inhibitor binding. • Figure 4: Dual assay for the identification of inhibitors of 14-3-3/ExoS interaction that would not affect interactions of 14-3-3 with endogenous binding parterns. L^1 and L^2 as well as L^3 and L^4 are chosen in order to allow a fluorescence polarization readout, ALPHA screen ("Amplified Luminescent Proximity Homogeneous Assay") or HRTF screen ("homogeneous time resolved fluorescence"; both ALPHA and HRTF screens are very sensitive homogeneous assay technologies that allow the screening of interactions in a proximity sensitive fashion). • Figure 5: (A) Crystal structure of ^420[…]^430 (sticks) complexed to 14-3-3 ζ ΔC (spacefill). The 2FC - F0 density is scaled to 1σ (grid). (B) Superimposition of truncated ExoS peptide (^420[…]^430) with the previously reported ExoS peptide (^416[…]^430, PDB 2002). […]

Compound | affinity for 14-3-3 compared to the starting sequence (WT) [1] | displacement of the labeled peptide by unlabeled WT peptide [2]
γ cross-linked peptide: ExoS 11-mer with γ cross-link (i,i+3) at positions Leu426 and Leu423 (R5 and S5, respectively), C8-linker (QGLXDAXDLAS; non-natural residues) | significantly decreased binding affinity | –
α cross-linked peptide: ExoS 11-mer with α cross-link (i,i+4): residues Leu426 and Leu422 replaced with S5, C8-linker (QG[S5]LDA[S5]DLAS; staple 3-7) | significantly decreased binding affinity | –
CC(C)C[C@H](NC(=O)CNC(=O)[C@@H](N)CCC(N)=O)C(=O)N[C@@H](CC(C)C)C(=O)N[C@@H](CC(=O)O)C(=O)N[C@@H](C)C(=O)N[C@@H](CC(C)C)C(=O)N[C@@H](CC(=O)O)C(=O)N[C@@H](CC(C)C)C(=O)N[C@@H](C)C(=O)N[C@@H](CO)C(=O)O | – | displacement by unlabeled WT peptide
